Laboratory results taken from PMC11098083 (Proceedings of the National Academy of Sciences of the …, 2024).
Like-named read-outs stand apart in the source and are kept apart here.

T1: HIS-tagged N-terminal of yeast Pol1 (1 to 527 AA) (yeast (S. cerevisiae), UniProt P13382 1-527)
T1 sequence (looked up): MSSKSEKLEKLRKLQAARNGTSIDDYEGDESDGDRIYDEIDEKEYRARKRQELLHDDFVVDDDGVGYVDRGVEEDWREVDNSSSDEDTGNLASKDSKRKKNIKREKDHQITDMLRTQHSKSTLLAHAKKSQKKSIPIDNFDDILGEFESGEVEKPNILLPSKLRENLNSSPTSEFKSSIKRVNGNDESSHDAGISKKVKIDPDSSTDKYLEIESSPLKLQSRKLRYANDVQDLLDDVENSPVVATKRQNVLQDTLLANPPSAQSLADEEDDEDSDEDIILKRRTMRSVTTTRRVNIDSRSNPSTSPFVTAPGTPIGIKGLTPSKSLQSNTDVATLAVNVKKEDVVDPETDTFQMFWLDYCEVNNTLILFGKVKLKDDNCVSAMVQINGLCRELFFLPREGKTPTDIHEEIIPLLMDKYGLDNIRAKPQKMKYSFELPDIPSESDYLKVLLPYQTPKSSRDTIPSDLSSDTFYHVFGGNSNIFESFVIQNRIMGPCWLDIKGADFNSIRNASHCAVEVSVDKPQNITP

B1: recombinant Mcm2 (GST tag removed) (natural protein)
chain: MSDNRRRRREEDDSDSENELPPSSPQQHFRGGMNPVSSPIGSPDMINPEGDDNEVDDVPDIDEVEEQMNEVDLMDDNMYEDYAADHNRDRYDPDQVDDREQQELSLSERRRIDAQLNERDRLLRNVAYIDDEDEEQEGAAQLDEMGLPVQRRRRRRQYEDLENSDDDLLSDMDIDPLREELTLESLSNVKANSYSEWITQPNVSRTIARELKSFLLEYTDETGRSVYGARIRTLGEMNSESLEVNYRHLAESKAILALFLAKCPEEMLKIFDLVAMEATELHYPDYARIHSEIHVRISDFPTIYSLRELRESNLSSLVRVTGVVTRRTGVFPQLKYVKFNCLKCGSILGPFFQDSNEEIRISFCTNCKSKGPFRVNGEKTVYRNYQRVTLQEAPGTVPPGRLPRHREVILLADLVDVSKPGEEVEVTGIYKNNYDGNLNAKNGFPVFATIIEANSIKRREGNTANEGEEGLDVFSWTEEEEREFRKISRDRGIIDKIISSMAPSIYGHRDIKTAVACSLFGGVPKNVNGKHSIRGDINVLLLGDPGTAKSQILKYVEKTAHRAVFATGQGASAVGLTASVRKDPITKEWTLEGGALVLADKGVCLIDEFDKMNDQDRTSIHEAMEQQSISISKAGIVTTLQARCSIIAAANPNGGRYNSTLPLAQNVSLTEPILSRFDILCVVRDLVDEEADERLATFVVDSHVRSHPENDEDREGEELKNNGESAIEQGEDEINEQLNARQRRLQRQRKKEEEISPIPQELLMKYIHYARTKIYPKLHQMDMDKVSRVYADLRRESISTGSFPITVRHLESILRIAESFAKMRLSEFVSSYDLDRAIKVVVDSFVDAQKVSVRRQLRRSFAIYTLGH
B2: recombinant glutathione S-transferase (GST)-Pol32 (natural protein, yeast (S. cerevisiae), UniProt P47110 1-350, looked up)
chain: MDQKASYFINEKLFTEVKPVLFTDLIHHLKIGPSMAKKLMFDYYKQTTNAKYNCVVICCYKDQTIKIIHDLSNIPQQDSIIDCFIYAFNPMDSFIPYYDIIDQKDCLTIKNSYELKVSESSKIIERTKTLEEKSKPLVRPTARSKTTPEETTGRKSKSKDMGLRSTALLAKMKKDRDDKETSRQNELRKRKEENLQKINKQNPEREAQMKELNNLFVEDDLDTEEVNGGSKPNSPKETDSNDKDKNNDDLEDLLETTAEDSLMDVPKIQQTKPSETEHSKEPKSEEEPSSFIDEDGYIVTKRPATSTPPRKPSPVVKRALSSSKKQETPSSNKRLKKQGTLESFFKRKAK

Tests used:
Assay in all cases: pull-down
[1] = biological target: T2, recombinant human histone H3.1–H4 tetramer (human, UniProt P68431 1-136; P62805 1-103)
[2] = biological target: B1
[3] = biological target: T2, recombinant human histone H3.1–H4 …; remark: listed apart in the source
[4] = biological target: T1, HIS-tagged N-terminal of yeast Pol1 (1 …)

Row | binding result [1] | binding result [2] | binding result [3] | binding result [4] | Binder
1 | binds | – | – | – | B1
2 | – | binds | binds | binds | B2
